Reference: patent US20250262210A1 (TRUSTEES OF COLUMBIA UNIVERSITY IN THE CITY OF NEW YORK, published 2025)

T1: RAPH1 (human, UniProt Q70E73 1-1250, limits assumed)
T1 sequence (looked up): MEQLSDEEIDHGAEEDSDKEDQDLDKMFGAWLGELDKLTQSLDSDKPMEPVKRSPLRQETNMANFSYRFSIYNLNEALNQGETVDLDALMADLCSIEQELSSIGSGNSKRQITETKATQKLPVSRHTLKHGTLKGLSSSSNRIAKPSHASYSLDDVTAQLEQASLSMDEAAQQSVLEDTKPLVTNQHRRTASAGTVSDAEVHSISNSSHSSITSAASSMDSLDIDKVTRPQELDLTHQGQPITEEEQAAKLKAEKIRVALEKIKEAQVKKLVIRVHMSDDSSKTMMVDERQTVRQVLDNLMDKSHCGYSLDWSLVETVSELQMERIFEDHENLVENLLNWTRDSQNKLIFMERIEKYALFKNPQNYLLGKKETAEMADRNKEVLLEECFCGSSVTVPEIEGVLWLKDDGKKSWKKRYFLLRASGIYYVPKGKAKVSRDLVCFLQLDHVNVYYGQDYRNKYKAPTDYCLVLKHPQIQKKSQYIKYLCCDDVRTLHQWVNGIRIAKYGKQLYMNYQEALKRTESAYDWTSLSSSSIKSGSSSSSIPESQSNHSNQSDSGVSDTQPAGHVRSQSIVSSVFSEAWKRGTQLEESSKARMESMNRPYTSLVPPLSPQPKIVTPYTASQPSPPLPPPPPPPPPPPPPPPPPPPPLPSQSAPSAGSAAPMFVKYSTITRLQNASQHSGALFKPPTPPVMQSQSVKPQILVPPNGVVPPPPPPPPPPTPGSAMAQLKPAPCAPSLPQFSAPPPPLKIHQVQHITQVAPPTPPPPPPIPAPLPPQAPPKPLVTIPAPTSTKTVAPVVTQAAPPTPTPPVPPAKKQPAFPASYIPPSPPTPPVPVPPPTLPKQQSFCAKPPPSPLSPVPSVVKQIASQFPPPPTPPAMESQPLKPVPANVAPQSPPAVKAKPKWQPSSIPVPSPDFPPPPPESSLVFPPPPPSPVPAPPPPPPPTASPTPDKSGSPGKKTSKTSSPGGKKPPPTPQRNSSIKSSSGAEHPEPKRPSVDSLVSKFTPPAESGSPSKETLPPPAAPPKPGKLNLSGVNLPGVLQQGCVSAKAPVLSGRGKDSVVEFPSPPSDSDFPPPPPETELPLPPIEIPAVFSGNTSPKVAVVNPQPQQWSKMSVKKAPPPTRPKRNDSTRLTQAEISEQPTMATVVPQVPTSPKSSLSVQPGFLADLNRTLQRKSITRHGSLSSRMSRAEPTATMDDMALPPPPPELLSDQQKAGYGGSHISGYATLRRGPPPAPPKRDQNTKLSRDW

T2: ABR (human, UniProt Q12979 1-859, limits assumed)
T2 sequence (looked up): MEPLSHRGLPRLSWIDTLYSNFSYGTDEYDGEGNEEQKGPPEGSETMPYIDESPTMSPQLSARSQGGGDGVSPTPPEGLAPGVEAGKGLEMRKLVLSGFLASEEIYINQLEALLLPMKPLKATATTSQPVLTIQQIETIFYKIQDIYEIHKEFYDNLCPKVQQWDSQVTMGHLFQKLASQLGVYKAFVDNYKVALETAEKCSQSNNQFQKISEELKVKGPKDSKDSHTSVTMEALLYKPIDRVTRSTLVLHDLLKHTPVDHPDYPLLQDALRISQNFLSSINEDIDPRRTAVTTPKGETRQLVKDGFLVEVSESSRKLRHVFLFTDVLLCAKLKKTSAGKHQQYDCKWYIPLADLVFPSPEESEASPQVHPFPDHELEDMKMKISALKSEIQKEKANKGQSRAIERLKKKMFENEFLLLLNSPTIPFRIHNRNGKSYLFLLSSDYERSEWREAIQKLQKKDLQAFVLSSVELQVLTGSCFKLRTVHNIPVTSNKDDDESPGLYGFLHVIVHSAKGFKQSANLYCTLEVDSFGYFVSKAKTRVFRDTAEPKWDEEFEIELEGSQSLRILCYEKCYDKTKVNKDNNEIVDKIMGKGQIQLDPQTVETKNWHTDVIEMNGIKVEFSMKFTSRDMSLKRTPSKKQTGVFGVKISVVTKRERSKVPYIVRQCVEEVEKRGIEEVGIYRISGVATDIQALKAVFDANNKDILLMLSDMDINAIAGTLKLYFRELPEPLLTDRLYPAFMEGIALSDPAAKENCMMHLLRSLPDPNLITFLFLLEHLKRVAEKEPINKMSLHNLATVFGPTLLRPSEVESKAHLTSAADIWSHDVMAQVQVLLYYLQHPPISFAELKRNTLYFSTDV

B1: LZTR1-FLAG (other, human, UniProt Q8N653 1-840, looked up)
chain: MAGPGSTGGQIGAAALAGGARSKVAPSVDFDHSCSDSVEYLTLNFGPFETVHRWRRLPPCDEFVGARRSKHTVVAYKDAIYVFGGDNGKTMLNDLLRFDVKDCSWCRAFTTGTPPAPRYHHSAVVYGSSMFVFGGYTGDIYSNSNLKNKNDLFEYKFATGQWTEWKIEGRLPVARSAHGATVYSDKLWIFAGYDGNARLNDMWTIGLQDRELTCWEEVAQSGEIPPSCCNFPVAVCRDKMFVFSGQSGAKITNNLFQFEFKDKTWTRIPTEHLLRGSPPPPQRRYGHTMVAFDRHLYVFGGAADNTLPNELHCYDVDFQTWEVVQPSSDSEVGGAEVPERACASEEVPTLTYEERVGFKKSRDVFGLDFGTTSAKQPTQPASELPSGRLFHAAAVISDAMYIFGGTVDNNIRSGEMYRFQFSCYPKCTLHEDYGRLWESRQFCDVEFVLGEKEECVQGHVAIVTARSRWLRRKITQARERLAQKLEQEAAPVPREAPGVAAGGARPPLLHVAIREAEARPFEVLMQFLYTDKIKYPRKGHVEDVLLIMDVYKLALSFQLCRLEQLCRQYIEASVDLQNVLVVCESAARLQLSQLKEHCLNFVVKESHFNQVIMMKEFERLSSPLIVEIVRRKQQPPPRTPLDQPVDIGTSLIQDMKAYLEGAGAEFCDITLLLDGHPRPAHKAILAARSSYFEAMFRSFMPEDGQVNISIGEMVPSRQAFESMLRYIYYGEVNMPPEDSLYLFAAPYYYGFYNNRLQAYCKQNLEMNVTVQNVLQILEAADKTQALDMKRHCLHIIVHQFTKVSKLPTLRSLSQQLLLDIIDSLASHISDKQCAELGADI
notes: Expressed in HEK 293T, HeLa or U87 cells; used as cell lysate; also called LZTR1 wild type-FLAG; LZTR1 WT; not shown: FLAG tag at the C-terminus
B2: LZTR1 R810W-FLAG (other, human, UniProt Q8N653 1-840, looked up)
chain: MAGPGSTGGQIGAAALAGGARSKVAPSVDFDHSCSDSVEYLTLNFGPFETVHRWRRLPPCDEFVGARRSKHTVVAYKDAIYVFGGDNGKTMLNDLLRFDVKDCSWCRAFTTGTPPAPRYHHSAVVYGSSMFVFGGYTGDIYSNSNLKNKNDLFEYKFATGQWTEWKIEGRLPVARSAHGATVYSDKLWIFAGYDGNARLNDMWTIGLQDRELTCWEEVAQSGEIPPSCCNFPVAVCRDKMFVFSGQSGAKITNNLFQFEFKDKTWTRIPTEHLLRGSPPPPQRRYGHTMVAFDRHLYVFGGAADNTLPNELHCYDVDFQTWEVVQPSSDSEVGGAEVPERACASEEVPTLTYEERVGFKKSRDVFGLDFGTTSAKQPTQPASELPSGRLFHAAAVISDAMYIFGGTVDNNIRSGEMYRFQFSCYPKCTLHEDYGRLWESRQFCDVEFVLGEKEECVQGHVAIVTARSRWLRRKITQARERLAQKLEQEAAPVPREAPGVAAGGARPPLLHVAIREAEARPFEVLMQFLYTDKIKYPRKGHVEDVLLIMDVYKLALSFQLCRLEQLCRQYIEASVDLQNVLVVCESAARLQLSQLKEHCLNFVVKESHFNQVIMMKEFERLSSPLIVEIVRRKQQPPPRTPLDQPVDIGTSLIQDMKAYLEGAGAEFCDITLLLDGHPRPAHKAILAARSSYFEAMFRSFMPEDGQVNISIGEMVPSRQAFESMLRYIYYGEVNMPPEDSLYLFAAPYYYGFYNNRLQAYCKQNLEMNVTVQNVLQILEAADKTQALDMKRHCLHIIVHQFTKVSKLPTLWSLSQQLLLDIIDSLASHISDKQCAELGADI
notes: Stably expressed in U87 cells by lentivirus; also called LZTR1-FLAG-R810W; LZTR1 RW; not shown: FLAG tag

Key:
RAPH1 = target: T1, RAPH1; experiment: IP/MS, LZTR1 wild type-FLAG, U87
Procedure, shortened: (§1)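 Extracted peptides in 3% acetonitrile/0.1% formic acid ran on a 50 cm C18 column into an Orbitrap Fusion, with MaxQuant identification and spectral counting.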

ABR = target: T2, ABR; experiment: IP/MS, LZTR1 wild type-FLAG, U87
Procedure, shortened: as §1

AXL = AXL (human, UniProt P30530 26-894, limits assumed); experiment: IP/MS, LZTR1 R810W-FLAG, U87; spectral counts >2-fold against wild type
Protocol: (§2) Lysates were immunoprecipitated with FLAG affinity matrix and eluted with FLAG peptide. […] Protein gel slices were excised and in-gel digestion performed as previously described (83), with minor modifications. Gel slices were washed with 1:1 A cetonitrile and 100 mM ammonium bicarbonate for 30 min then dehydrated with 100% acetonitrile for 10 min until shrunk. The excess acetonitrile was then removed and the slices dried in speed-vacuum at room temperature for 10 min. Gel slices were reduced with 5 mM DTT for 30 min at 56° C. in an air thermostat, cooled down to room temperature, and alkylated with 11 mM IAA for 30 min with no light. Gel slices were then washed with 100 mM of ammonium bicarbonate and 100% acetonitrile for 10 min each. Excess acetonitrile was removed and dried in a speed-vacuum for 10 min at room temperature and the gel slices were re-hydrated in a solution of 25 ng/μl trypsin in 50 mM ammonium bicarbonate for 30 min on ice and digested overnight at 37° C. in an air thermostat. Digested peptides were collected and further extracted from gel slices in extraction buffer (1:2 ratio by volume of 5% formic acid:acetonitrile) at high speed, shaking in an air thermostat. […] The following modifications were used for protein identification and quantification: oxidation of methionine (M), acetylation of the protein N-terminus, and deamination for asparagine or glutamine (NQ). […]

EGFR = target: T3, EGFR (human, UniProt P00533 25-1210); experiment: as above
T3 construct: also called epidermal growth factor receptor
Protocol: as §2

Binder | binding result (RAPH1) | binding result (ABR) | binding result (AXL) | binding result (EGFR)
B1 | binds | binds |  | 
B2 |  |  | binds | binds
